Measured values reported in patent publication US20120121613.

Tests used:
[1] = molecular target: unmodified FVIII mutein (UniProt P00451)
[2] = molecular target: PEG-linker-FVIII (FVIII mutein conjugated to PEG through a thrombin-cleavable linker, linker not named in Example 2) (UniProt P00451)
[3] = molecular target: PEG-FVIII (FVIII mutein directly, non-cleavably conjugated to PEG) (UniProt P00451)

thrombin
SDS-PAGE after thrombin digestion (30 min at 37° C.) [1]: After thrombin digestion, the FVIII light and heavy chains disappear and are replaced by cleavage products.
SDS-PAGE after thrombin digestion (30 min at 37° C.) [2]: the PEG-conjugated light chain almost completely disappeared in SDS-PAGE analysis, indicating a complete removal of PEG
SDS-PAGE after thrombin digestion [3]: there was no removal of PEG-conjugated light chain (lane 4)
